Reference: patent US20230212319A1, “NOVEL ANTIGEN BINDING DOMAINS AND SYNTHETIC ANTIGEN RECEPTORS INCORPORATING THE SAME” (University of Southern California, priority 2020, published 2023)

B1: 22162 (protein)
chain: MALPVTALLLPLALLLHAARPDIQMTQSPSSLSASVGDRVTITCKASDHINNWLAWYQQKPGQAPKLLIYGATTLETGVPSRFSGSGSGTDYTLTISSLQPEDFATYYCQQSWNTPWTFGQGTKLEIKRLEDLKNVFPPEVAVFEPSEAEISHTQKATLVCLATGFYPDHVELSWWVNGKEVHSGVCTDPQPLKEQPALNDSRYCLSSRLRVSATFWQNPRNHFRCQVQFYGLSENDEWTQDRAKPVTQIVSAEAWGRADCGFTSESYQQGVLSATILYEILLGKATLYAVLVSALVLMAMVKRKDSRGRAKRSGSGATNFSLLKQAGDVEENPGPTSATMDWIWRILFLVGAATGAHSGPEVQLLESGGGLVQPGGSLRLSCAASGSIASIHAMGWFRQAPGKEREFVAVITWSGGITYYADSVKGRFTISRDNSKNTVYLQMNSLRPEDTALYYCAGDKHQSSWYDYWGQGTLVTVSSGSGGGGSGGGGSGGGGSFEQVQLQQPGAELVKPGASVKMSCKASGYAFSSYWINWMKQKPGQGLEWIGQIYPGDGDTNYNGKFKGRATLTADTSSSTAYMQLSSLTSEDSAVYFCARSITTVVGCAMDYWGQGTSVTVSSTRIQNPDPAVYQLRDSKSSDKSVCLFTDFDSQTNVSQSKDSDVYITDKCVLDMRSMDFKSNSAVAWSNKSDFACANAFNNSIIPEDTFFPSPESSCDVKLVEKSFETDTNLNFQNLSVIGFRILLLKVAGFNLLMTLRLWSSRAKRSGSGVKQTLNFDLLKLAGDVESNPGPSRGHMTEYKPTVRLATRDDVPRAVRTLAAAFADYPATRHTVDPDRHIERVTELQELFLTRVGLDIGKVWVADDGAAVAVWTTPESVEAGAVFAEIGPRMAELSGSRLAAQQQMEGLLAPHRPKEPAWFLATVGVSPDHQGKGLGSAVVLPGVEAAERAGVPAFLETSAPRNLPFYERLGFTVTADVEVPEGPRTWCMTRKPGA
B2: 22096 (protein)
chain: MALPVTALLLPLALLLHAARPQLQLQESGPGLVKPSETLSLTCTVSGDSISSGDYYWGWIRQPPGKGLEWIGHIYYSGVTYYNPSLKSRVTISVDTSRNQFSLKLSSVTAADTAVYYCTREDSSNWRSRGQGTLVTVSSLEGQPKANPTVTLFPPSSEELQANKATLVCLISDFYPGAVTVAWKADGSPVKAGVETTKPSKQSNNKYAASSYLSLTPEQWKSHRSYSCQVTHEGSTVEKTVAPTECSPIKTDVITMDPKDNCSKDANDTLLLQLTNTSAYYMYLLLLLKSVVYFAIITCCLLRRTAFCCNGEKSRAKRSGSGATNFSLLKQAGDVEENPGPTSMDWIWRILFLVGAATGAHSFEVQLLESGGGLIQPGGSLRLSCAASGFTFSSHAMTWVRQAPGKGLEWVSAISGSGDYTHYADSVKGRFTISRDNSKNTVYLQMNSLRAEDSAVYYCAKDEDGGSLLGHRGQGTLVTVSSTRASTKGPSVFPLAPSSKSTSGGTAALGCLVKDYFPEPVTVSWNSGALTSGVHTFPAVLQSSGLYSLSSVVTVPSSSLGTQTYICNVNHKPSNTKVDKRVEPKSCEVKTDSTDHVKPKETENTKQPSKSCHKPKAIVHTEKVNMMSLTVLGLRMLFAKTVAVNFLLTAKLFFLRAKRSGSGVKQTLNFDLLKLAGDVESNPGPSRGHMTEYKPTVRLATRDDVPRAVRTLAAAFADYPATRHTVDPDRHIERVTELQELFLTRVGLDIGKVWVADDGAAVAVWTTPESVEAGAVFAEIGPRMAELSGSRLAAQQQMEGLLAPHRPKEPAWFLATVGVSPDHQGKGLGSAVVLPGVEAAERAGVPAFLETSAPRNLPFYERLGFTVTADVEVPEGPRTWCMTRKPGA
B3: 22020 (protein)
chain: MALPVTALLLPLALLLHAARPQLQLQESGPGLVKPSETLSLTCTVSGDSISSGDYYWGWIRQPPGKGLEWIGHIYYSGVTYYNPSLKSRVTISVDTSRNQFSLKLSSVTAADTAVYYCTREDSSNWRSRGQGTLVTVSSLDSGGGGSFEQLQLQESGPGLVKPSETLSLTCTVSGGSISSGDYYWGWIRQPPGKGLEWIGHIYYSGATYYNPSLKSRVTISVDTSRNQFSLKLSSVTAADTAVYYCTRDDSSNWRSRGQGTLVTVSSTRIQNPDPAVYQLRDSKSSDKSVCLFTDFDSQTNVSQSKDSDVYITDKCVLDMRSMDFKSNSAVAWSNKSDFACANAFNNSIIPEDTFFPSPESSCDVKLVEKSFETDTNLNFQNLSVIGFRILLLKVAGFNLLMTLRLWSSRAKRSGSGVKQTLNFDLLKLAGDVESNPGPSRGHMTEYKPTVRLATRDDVPRAVRTLAAAFADYPATRHTVDPDRHIERVTELQELFLTRVGLDIGKVWVADDGAAVAVWTTPESVEAGAVFAEIGPRMAELSGSRLAAQQQMEGLLAPHRPKEPAWFLATVGVSPDHQGKGLGSAVVLPGVEAAERAGVPAFLETSAPRNLPFYERLGFTVTADVEVPEGPRTWCMTRKPGA
B4: 21985 (protein)
chain: MALPVTALLLPLALLLHAARPQLQLQESGPGLVKPSETLSLTCTVSGDSISSGDYYWGWIRQPPGKGLEWIGHIYYSGVTYYNPSLKSRVTISVDTSRNQFSLKLSSVTAADTAVYYCTREDSSNWRSRGQGTLVTVSSLEDLKNVFPPEVAVFEPSEAEISHTQKATLVCLATGFYPDHVELSWWVNGKEVHSGVCTDPQPLKEQPALNDSRYCLSSRLRVSATFWQNPRNHFRCQVQFYGLSENDEWTQDRAKPVTQIVSAEAWGRADCGFTSESYQQGVLSATILYEILLGKATLYAVLVSALVLMAMVKRKDSRGRAKRSGSGATNFSLLKQAGDVEENPGPTSMDWIWRILFLVGAATGAHSFEVQLLESGGGLIQPGGSLRLSCAASGFTFSSHAMTWVRQAPGKGLEWVSAISGSGDYTHYADSVKGRFTISRDNSKNTVYLQMNSLRAEDSAVYYCAKDEDGGSLLGHRGQGTLVTVSSTRIQNPDPAVYQLRDSKSSDKSVCLFTDFDSQTNVSQSKDSDVYITDKCVLDMRSMDFKSNSAVAWSNKSDFACANAFNNSIIPEDTFFPSPESSCDVKLVEKSFETDTNLNFQNLSVIGFRILLLKVAGFNLLMTLRLWSSRAKRSGSGVKQTLNFDLLKLAGDVESNPGPSRGHMTEYKPTVRLATRDDVPRAVRTLAAAFADYPATRHTVDPDRHIERVTELQELFLTRVGLDIGKVWVADDGAAVAVWTTPESVEAGAVFAEIGPRMAELSGSRLAAQQQMEGLLAPHRPKEPAWFLATVGVSPDHQGKGLGSAVVLPGVEAAERAGVPAFLETSAPRNLPFYERLGFTVTADVEVPEGPRTWCMTRKPGA

These molecules were tested on Nalm6 cells (assay: JNG assay, co-culture with Nalm6 cells). Conditions: co-culture with Nalm6.
Type: cell-based
Procedure: Cellular supernatant is collected and assayed for the induction of cytokines (e.g., IL2).
JNG (Jurkat cells expressing EGFP under an NFAT promoter) were infected with lentiviral vectors encoding different single chain and multi-chain SARs by spinfection in the presence of 8 µg/ml of Polybrene® (Sigma, Catalog no. H9268). The Jurkat-NFAT-GFP cells are engineered in such a way that the IL-2 promoter, which carries NFAT binding sites, is cloned upstream of the GFP gene. These cells have been used to study signaling via TCR and CAR. The different SARs were stably expressed in Jurkat NFAT-GFP cells by lentiviral mediated gene transfer, followed by selection with puromycin or blasticidin. No drug selection was used in case the construct lacked an antibiotic resistance gene. The SAR-expressing Jurkat-NFAT-GFP cells were cocultured with the target cells at E:T ratio of approximately 1:2 for approximately 4 hours to 18 hours. When the interaction between SIRs and their target antigen results in activation of the NFAT pathway, GFP expression is induced. […] GFP expression was monitored by FACS analysis. The Jurkat-NFAT-GFP (parental) cells were used as control. The structure of different constructs can be determined based on their names. For example, the construct CD8SP-CD19-hu-mROO5-1-vL-[hTCRa-C SDVP]-F-F2A-Spe-IgHSP-Apa-CD20-vHH-2HCD25-G4S-CDl9-hu-mROO5-1-vH-Mlu-[hTCRb-KACIAH]-F-P2A-PAC has the following modules from 5′ to 3′ direction: a CD8 signal peptide (CD8SP), the CD19 targeting hu-mROO5-1 vL fragment (CD19-hu-mROO5-1), Xho1 cloning site, human TCRa constant chain containing CSDVP mutations (hTCRa-CSDVP), Furine cleavage site (F), F2A ribosomal skip sequence (F2A), SpeI site, human IgH signal peptide (IgHSP), Apa I restriction enzyme site, camelid CD20-2HCD25-VHH module targeting CD20, BamHI restriction enzyme site, Glycinex4-serine linker (G4S), BstI restriction enzyme site, CD19-hu-mROO5-1-vH fragment targeting CD19, Mlu I restriction enzyme site, human TCRb constant chain containing KACIAH mutations ([hTCRb-KACIAH]), Furine cleavage site (F), P2A ribosomal skip sequence and Puromycin resistance gene (PAC). The sequence of the other constructs in the table can be similarly determined from their names and by referring to the different Tables of this disclosure that provide the names and SEQ ID NO of the different modules. Alternatively, the composition and modular architecture of the different SAR constructs can be determined from their sequences by bioinformatics tools, including using nucleic acid and amino acids homology searches. A SAR is considered positive in the assay in case the SAR expressing Jurkat-NFAT-GFP cells show greater % GFP positive cells when cultured with the target cell line as compared to parental Jurkat-NFAT-GFP cells. The signs +/-, +, 2+ etc. after the name of the cell lines indicate the relative degree of positivity on the Jurkat-NFAT-GFP assay as measured by the % GFP positive cells after culture of the SAR expressing Jurkat-NFAT-GFP cells with that cell line above the % GFP cells observed in parental Jurkat NFAT-GFP cells serving as controls. In general, the number +/-, +, 2+, 3+, 4+, 5+ refer to approximately 5%, 10%, 20%, 30%, 40% and 50% GFP positive cells. The % of GFP induction in the above assay is dependent not only the relative strength of the SAR but also, among other factors, on the relative level of expression of the SAR in the JNG cells and the relative level of expression of the target antigen in the target cell line. To control for the difference in gene transduction efficiency of the different SAR constructs, the experiment was conducted with JNG cells transduced with SAR constructs co-expressing a drug resistance gene (e.g., puromycin or PAC) followed by drug selection to generate a stable population of SAR-expressing cells. […]

Molecule | NFAT-GFP ASSAY: Nalm6
B1 | 5+ (refer to approximately 5%, 10%, 20%, 30%, 40% and 50% GFP positive cells)
B2 | + (refer to approximately 5%, 10%, 20%, 30%, 40% and 50% GFP positive cells)
B3 | +/- (refer to approximately 5%, 10%, 20%, 30%, 40% and 50% GFP positive cells)
B4 | +/- (refer to approximately 5%, 10%, 20%, 30%, 40% and 50% GFP positive cells)

The molecules below were run on RAJI cells (assay: JNG assay, co-culture with RAJI cells). Conditions: JNG cells expressing construct, co-culture with Raji.
Type: cell-based
In short: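 Jurkat NFAT-GFP (JNG) cells stably transduced with SARs by lentivirus, with drug selection where the construct carried a resistance gene, then co-cultured with target cells at E:T ~1:2 for ~4–18 h. % GFP-positive cells measured by FACS against parental JNG; +/- to 5+ correspond to ~5–50% GFP-positive.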

Molecule | NFAT-GFP ASSAY: Raji
B2 | 2+ (refer to approximately 5%, 10%, 20%, 30%, 40% and 50% GFP positive cells)
B3 | +/- (refer to approximately 5%, 10%, 20%, 30%, 40% and 50% GFP positive cells)
